FireProtDB (doi:10.1007/s00775-020-01777-0)

B1: Cytochrome c-553, B8C6L5 (parent)
chain: MKLTIVAALIASASAWTTPKSFESVKAAVAGAAVTAGVAVSPAFAGDVGAGEQIFNANCAACHAGGQNVIMPDKTLEKEALEQYLAGGRNEKAVMTQVTNGKNAMPAFGGRLSDEDIANVASYVIATSEAGWD

Variants of: B1
Details: Thalassiosira pseudonana; pH 7.4; Thermal; UV/Vis spectroscopy; HEPES; transition: 2; reversible: > 90% (Yes); whole UniProt chain shown

Variant | Tm [°C] | unfolding enthalpy (van 't Hoff) [kcal/mol]
A126S | 35.1 | 40.8
A93S A126S | 32.2 | 38.2
A86S | 38.9 | 43.7
A93S | 35.4 | 45.9
